Source: patent publication US20180105585A1
Substitutions are numbered along the chain they refer to.

B1: Abet0007 scFv (scFv, part only; not given: Linker, tags and domain order, V domains shown, not shown: another chain or arm of the molecule; small tags and cut ends)
VH: EVQLLESGGGLVQPGGSLRLSCAASGFTFSVYTMWWVRQAPGKGLEWVSVIGSSGGTTVYADSVKGRFTISRDNSKNTLYLQMNSLRAEDTAVYYCAREGQQLVRPYYYYGMDVWGQGTLVTVSS
VL: QSVLTQPPSVSVSPGQTASITCSGHNLEDKFASWYQQKSGQSPVLVIYRDDKRPSGIPERFSASNSGHTATLTISGTQATDEADYYCQAQDSTTRVFGGGTKLTVL
B2: Abet0144 scFv (scFv, part only; not given: Linker, tags and domain order, V domains shown, not shown: another chain or arm of the molecule; small tags and cut ends)
VH: B1 VH with G100W, Q101M, Q102D, L103H, V104S
VL: B1 VL

Experiments:
[1] = biological target: Biotinylated human Amyloid beta 1-42 peptide (human); experiment: HTRF epitope competition, purified scFv against Abet0042 IgG (competitor) for biotinylated human Amyloid beta 1-42
[2] = biological target: Biotinylated human Amyloid beta 1-42 peptide (human); experiment: SPR (BIAcore T-100), biotinylated peptide on SA chip, scFv 12.5-400 nM, 1:1 Langmuir

Biotinylated human Amyloid beta 1-42 peptide (human), sequence (peptide, as listed by the source): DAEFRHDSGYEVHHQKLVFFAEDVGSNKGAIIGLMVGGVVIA

Row | Binder | IC50 [1] [nM] | Kd [2] [nM] | koff [2] [s⁻¹] | kon [2] [M⁻¹ s⁻¹]
1 | B1 | 159 |  |  | 
2 | B2 | 5.5 | 33.2 | 0.00666 | 201000
